Measurements published in patent US20240301048A1 (LANIER BIOTHERAPEUTICS, published 2024).

What was measured:
[1] = biological target: T1, recombinant human IL-17A (R&D Systems) (human, UniProt Q16552 24-155); test: SPR, Biacore T-100; antibody immobilized on CM5 chip, rhIL17A 2.5-40 nM as analyte, single cycle kinetics
T1 construct: Bought recombinant protein; also called rhIL17A
Experimental: The surface was regenerated with a 30 second exposure of 10 mM Glycine-HCL pH 1.5. Single cycle kinetic analysis was performed on each antibody with the reference cell subtracted.

[2] = biological target: T1, recombinant human IL-17A (R&D Systems); test: cell-based or functional assay
[3] = biological target: T1, recombinant human IL-17A (R&D Systems); test: cell-based or functional assay; remark: listed apart in the source
[4] = biological target: T1, recombinant human IL-17A (R&D Systems); test: cell-based or functional assay; remark: listed apart in the source

T1 sequence (Q16552 24-155 limits assumed): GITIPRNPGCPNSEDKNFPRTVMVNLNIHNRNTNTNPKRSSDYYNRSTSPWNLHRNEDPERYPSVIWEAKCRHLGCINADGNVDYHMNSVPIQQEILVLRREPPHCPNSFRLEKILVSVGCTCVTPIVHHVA

Binder | Kd [1] [nM] | koff [1] [s⁻¹] | kon [1] [M⁻¹ s⁻¹] | IC50 (read off the curve), IL-6 in 3T3 cells [2] [µg/mL] | IL-17A Bioassay Potency (IC50, nM) [3] [nM] | IC50 (read off the curve), CXCL1 in HT29 cells [4] [µg/mL]
ABM64 (antibody, V domains shown) VH: QVHVKQSGPELVRPGVSVKISCKGSGYTFTDYAMHWVKQSHAKSLEWIGVISTYSGNTNYNQKFKGKATMTVDKSSSTAYMELARLTSEDSAIYYCARGNYGSDWGQGTLVTVSA VL: not shown | 0.248 | 0.000311 | 1.25e+06 | – | – | –
ABM59 (antibody, V domains shown) VH: EVKLVESGGGLVKPGGSLKLSCAASGFAFSSYDMSWVRQTPEKRLEWVAYISSGGGNTYYPDTVKGRFTISRDNAKNTLYLQMSSLKSEDTAMYYCAREALTMISTRDYYAMDYWGQGTSVTVSS VL: not shown | 0.506 | 0.00057 | 1.13e+06 | – | – | –
ABM60 (antibody, V domains shown) VH: EVHLKESGPDLVAPSQSLSITCTVSGFSLTTYGVHWVRQPPGKGLEWLVVIWSDGLTTYNSALKSRLSISKDNSKSQVFLKMNSLRTDDTAMYYCARDYTYEYAMDYWGQGTTVTVSS VL: DILLTQSPLSLPVSLGDQASISCRSSQSLVHSNGNTYLHWYLQKPGQSPKLLIYKVSNRFSGVPDRFSGSESGTDFTLKISRVEAEDLGVYFCSQSTHVPFTFGSGTKLEIKR | 0.24 | 5.65e-05 | 278000 | ~0.8 | – | –
Ixekizumab (antibody, V domains shown) VH: QVQLVQSGAEVKKPGSSVKVSCKASGYSFTDYHIHWVRQAPGQGLEWMGVINPMYGTTDYNQRFKGRVTITADESTSTAYMELSSLRSEDTAVYYCARYDYFTGTGVYWGQGTLVTVSS VL: DIVMTQTPLSLSVTPGQPASISCRSSRSLVHSRGNTYLHWYLQKPGQSPQLLIYKVSNRFIGVPDRFSGSGSGTDFTLKISRVEAEDVGVYYCSQSTHLPFTFGQGTKLEIKR | 0.0069 | 1.39e-05 | 2.01e+06 | ~0.2 | 0.39 | ~0.1
ABM67 (antibody, V domains shown) VH: EVKLVESGGGLVKPGGSLKLSCAASGFTFSSYAMSWVRQTPEKRLEWVATISSGGSYTYYPDSVKGRFTISRDNAKNTLYLQMSSLRSEDTAMYYCARQNWDAFVYWGQGTLVTASA VL: DIVLTQSPAILSVSPGERVSFSCRAGQSIGTSIHWYQRRTNGSPRLLIKSASESISGIPSRFSGSGSGTDFTLSINSVESEDIADYYCQQSNSWPLTFGAGTKLEIKR | 0.169 | 0.000121 | 713000 | – | – | –
